From the supplement of paper PMC12764529
± gives the half width of the 95% confidence interval.

Key:
[1] = folding stability dG unfold from trypsin proteolysis; higher = more stable
Summary of the method: (§1)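 Only designs with AlphaFold2 dimer inter-PAE above 15 were retained; each was a mini-protein under 80 residues with no cysteine, in a PA-tagged cDNA display construct. After digestion with trypsin and chymotrypsin and sequencing, K50 was inferred by Bayesian fitting of counts, and unfolding free energy was derived per protease or combined against a sequence-predicted unfolded-state K50 and a shared folded-state K50.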

[2] = folding stability dG unfold from chymotrypsin proteolysis; higher = more stable
Summary of the method: as §1

[3] = folding stability dG unfold (combined trypsin and chymotrypsin); higher = more stable
Summary of the method: as §1

| Sequence | folding stability dG unfold [1] | folding stability dG unfold [2] | folding stability dG unfold [3] |
| --- | --- | --- | --- |
| SAGGIKIQDPDDGEWIEFPLPIRNPGDGKPYPFKVEIPVRRDPENGRPYFYIEIEFPGNGRKMTFPLRSAGG [r13_262_TrROS] | 2.17 ± 0.251 kJ/mol | 4.68 ± 0.243 kJ/mol | 3.84 ± 0.238 kJ/mol |
| SAGEYVLVEVERGGKVETFVLPPELAKELLEKYSPDSEIPVKLEGREVRLRVLPIKPKEPTPEELAKAASAG [r5_669_TrMRF] | 1.28 ± 0.356 kJ/mol | 7.76 ± 0.586 kJ/mol | 5.9 ± 0.669 kJ/mol |
| SAGGPGRMREREFEIEFPFEPGQSIEDALRELIGLPPGIQIEDIKVEVDPEDGWVKISVTITVYDPNDSAGG [r13_828_TrROS] | 5.1 ± 0.176 kJ/mol | 5.41 ± 0.297 kJ/mol | 5.4 ± 0.628 kJ/mol |
| SAGGSAGGSAGGLPEGWVLKTETKTVKLKVKVKVDGKEYEFEVEVKVTRIELVPKEELESAGGSAGGSAGGS [r10_300_TrROS_Hall] | 12.7 ± 0.962 kJ/mol | 17.1 ± 0.837 kJ/mol | 15.7 ± 0.46 kJ/mol |
| SAGGKVKVKLSPEMIEALKKAGIKEGQKEVTIEVKLKDGSVYRVTITYDKKTNKITIKVEKVEKLPPSAGGS [r16_497_TrROS_Hall] | 10.8 ± 0.669 kJ/mol | 17.4 ± 0.418 kJ/mol | 16.2 ± 1.34 kJ/mol |
| SAGGMLLLTLTVDRVEEAEFPEKVPYLRTTTQPVVVPGTTLEEAEAVAAALAAAHGVPVTLTVTPETGSAGG [r13_320_JUSTAS] | -1.31 ± 0.669 kJ/mol | -0.731 ± 0.46 kJ/mol | -0.789 ± 0.301 kJ/mol |
| SAGGETLTVTVLIKNKDEKNKYYKVEVKVTVEKNENGEKTLTIEMKITDKNGNKKTIKVNLKDIKIIDSAGG [r13_787_TrROS_Hall] | 10.5 ± 1.09 kJ/mol | 18.1 ± 1 kJ/mol | 15.5 ± 1.34 kJ/mol |
| SAGMVKTVTLSREEVEKLVRELGRSPEEMTLEEFAERLEELFPGATVTVTVDTKTGTYTITITFPPSLASAG [r5_264_JUSTAS] | 15.1 ± 1.05 kJ/mol | 17.4 ± 0.356 kJ/mol | 16.5 ± 0.962 kJ/mol |
| SAGMKKLPSEEERKKAEELAKKGELVIIIRLKNGEKLVIVVKSEEELKELLKKLPLEIEEIYVFKVKKKSAG [r5_481_TrROS_Hall] | 7.18 ± 0.117 kJ/mol | 9.48 ± 0.205 kJ/mol | 8.68 ± 0.669 kJ/mol |
| SAGGSAGGSMTLVLEVDSVEDALAAVEALLPPGYRVTIEVEERGGRLLVTITIEPAPAPPPEESAGGSAGGS [r12_195_TrROS_Hall] | 8.05 ± 0.347 kJ/mol | 14.7 ± 0.314 kJ/mol | 13.2 ± 0.297 kJ/mol |
| SAGGSAGGSAGGMLTIVEVLSKDPEKPVYTVKVKFPDGSEKTLEVPPELLSNPEKEIVLESAGGSAGGSAGG [r7_117_JUSTAS] | 5.16 ± 0.301 kJ/mol | 6.03 ± 0.293 kJ/mol | 6.16 ± 0.502 kJ/mol |
| SAGGIEIPVNPHPSEDGQPYVMFTLEIEPKDDNGKKQERPIPFMFDSPDDAEEFASEAAPDGYKIRISAGGS [r16_652_TrROS] | -3.6 ± 2.01 kJ/mol | 0.819 ± 0.46 kJ/mol | -0.252 ± 0.628 kJ/mol |
| SAMVYPYLLRVYLPGSGEVVYFPASSLEEAVELLEEVAALPNVNSVDLYTPDGTKVHFLIDVPPEAFEESAG [r14_747_TrMRF] | 11.2 ± 0.502 kJ/mol | 12.09 ± 0.092 kJ/mol | 11.6 ± 0.276 kJ/mol |
| SAGGSAGGSAGSMSLPVTELVVESVDPLEGVLVVKVKGTLPDGSEVELTLEFKPDEPLELSAGGSAGGSAGG [r11_211_JUSTAS] | 4.15 ± 0.18 kJ/mol | 1.57 ± 0.276 kJ/mol | 2.97 ± 0.46 kJ/mol |
| SAGGSAGGSAGLEVPPGVPVKIPVVYVDKENDYVIVTELTITPDSGEIFYDPKIIPKKELSAGGSAGGSAGG [r11_468_TrMRF] | 1.05 ± 0.264 kJ/mol | 3.07 ± 0.293 kJ/mol | 2.72 ± 0.414 kJ/mol |
| SANKNFYIIQIKWEIDGPDGRTLSFMIIVPRDDPDEFLKEAKDFIAEEFGYPIKKIEVDIHRIPPEDFPSAG [r14_104_TrROS] | 11.5 ± 0.586 kJ/mol | 13.2 ± 0.293 kJ/mol | 12.6 ± 0.711 kJ/mol |
| SAGGSAGGSAMTPEELLKAAEELAKKLNLKVEIEVKKNENGELTITVKVYKNGKLVKEFEIKSAGGSAGGSA [r18_369_TrROS_Hall] | 12.8 ± 0.372 kJ/mol | 20.5 ± 0.46 kJ/mol | 20.1 ± 0.669 kJ/mol |
| SAGGSAGGSANYMIKITIEYTPPNGKKEEVEVTVPGMPIDQLLNNLPPEYPVEIKDIEIYPGSAGGSAGGSA [r18_32_TrROS] | 1.05 ± 0.1 kJ/mol | 0.643 ± 0.502 kJ/mol | 1.37 ± 0.46 kJ/mol |
| SAGGSAGGSAGGPEVEVFYERGPDGPLKVVVVVRNPDTPEVTVLVADLEPEKALEFLEALSAGGSAGGSAGG [r7_105_TrMRF] | 8.39 ± 0.586 kJ/mol | 7.8 ± 0.351 kJ/mol | 7.9 ± 0.753 kJ/mol |
| SAGGRRPVTAEEAADRLMKELGIPGLKNIKDVTMEYEVYDPDGKPWSRVDITIKIKMPPEQRDRLKKLSAGG [r13_552_TrROS] | 2.54 ± 0.502 kJ/mol | 1.83 ± 0.795 kJ/mol | 2.14 ± 0.669 kJ/mol |
| SAGGSAMKIEITVEKNENGELTITVKIYDKNGKLVKEIKLKVKTEEEAKKALKELAEKLGIEVEPESAGGSA [r15_242_TrROS_Hall] | 8.48 ± 2.01 kJ/mol | 15.4 ± 0.669 kJ/mol | 14 ± 1.84 kJ/mol |
